Results on one substance are retold here after patent publication US7074560B2, “Purification of tissue plasminogen activator (tPA)” (Dyax Corp., priority 1996, dated 2006).

The test has as its target tPA (Homo sapiens, UniProt P00750). Description: 15-amino acid segment bound to a chromatographic support: tPA binding. The conditions noted are these: initial studies. An excerpt: As noted above, almost all of the variegation in amino acid positions used in building the CMTI library occurred between two cyteines at positions 3 and 10 of CMTI-I (see Table 3). In the parental CMTI protein, these cysteines form disulfide bonds with other cysteine residues elsewhere in the protein (see SEQ ID NO: 1), however with the successful isolation of affinity ligands from the CMTI library, a secondary library was conceptualized which was based on variegating a truncated 15-amino acid segment of the isolate #109 (see amino acids 1–15 of SEQ ID NO: 12). If the C3 and C10 cysteines of these members formed a disulfide bond, then a constrained loop having tPA binding properties might be obtained.

Positions of bridges follow the written chain, without caps; N, C: chain ends. No end group written: not given here.

Chain of tPA (P00750 36-562): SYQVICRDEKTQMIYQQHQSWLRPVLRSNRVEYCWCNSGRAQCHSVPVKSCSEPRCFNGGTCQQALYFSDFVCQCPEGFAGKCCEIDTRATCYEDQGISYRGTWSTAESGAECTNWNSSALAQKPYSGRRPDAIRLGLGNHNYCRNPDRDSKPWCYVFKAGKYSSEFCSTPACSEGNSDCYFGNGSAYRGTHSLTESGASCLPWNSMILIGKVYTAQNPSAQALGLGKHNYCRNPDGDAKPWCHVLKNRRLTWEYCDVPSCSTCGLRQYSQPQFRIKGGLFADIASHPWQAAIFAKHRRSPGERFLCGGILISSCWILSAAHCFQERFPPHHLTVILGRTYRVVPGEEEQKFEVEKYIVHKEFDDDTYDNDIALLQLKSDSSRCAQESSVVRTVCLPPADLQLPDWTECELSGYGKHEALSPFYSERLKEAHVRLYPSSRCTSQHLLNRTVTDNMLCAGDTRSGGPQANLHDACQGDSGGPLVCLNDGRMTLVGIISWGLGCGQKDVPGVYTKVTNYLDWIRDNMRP

With “15-amino acid segment derived from affinity ligand isolate #109: truncated 15-amino acid segment of isolate #109 (amino acids 1–15 of SEQ ID NO: 12), C3–C10 disulfide loop (RLCPKTDLGCMKDSD; disulfide 3-10)”, the “binding of the immobilized C3–C10 loop to tPA” value is on record as “bound to tPA”.
